Source: paper PMC12609441, “Comparative Preclinical Evaluation of the Tumor-Targeting Properties of Radioiodine and Technetium-Labeled Designed Ankyrin Repeat Proteins for Imaging of Epidermal Growth Factor Receptor Expression in Malignant Tumors” (International Journal of Molecular Sciences, 2025)

Target: T1, epidermal growth factor receptor (EGFR) (human (endogenous in A-431, DU-145, …, UniProt P00533 25-1210))
T1 construct: also called ErbB1; HER1
Assay: radioligand binding; saturation assay on living A-431 cells; eight concentrations of radiolabeled protein 0.22 to 40 nM, 4 h at 4 °C; nonspecific binding with 50-fold molar excess of unlabeled (HE)3-E01; nonlinear regression
Details: one partner purified

B1: [^99mTc]Tc-(HE)3-E01 (designed binder)
chain: MRGSHEHEHEGSDLGKKLLEAARAGQDDEVRILMANGADVNADDTWGWTPLHLAAYQGHLEIVEVLLKNGADVNAYDYIGWTPLHLAADGHLEIVEVLLKNGADVNASDYIGDTPLHLAAHNGHLEIVEVLLKHGADVNAQDKFGKTAFDISIDNGNEDLAEILQKLN
modifications: [^99mTc]Tc(CO)3^+ with the (HE)3 tag as a chelator at the N-terminus
notes: DARPin E01 with the N-terminal (HE)3 tag; also called DARPin (HE)3-E01 labeled with [^99mTc]Tc(CO)3; technetium-labeled variant; source: E. coli, purified; labeled with [^99mTc]Tc(CO)3, isolated on NAP-5 size-exclusion column; not shown: (HE)3, N-terminal, kept
B1 showed a Kd of 4.9 ± 0.5 nM.

B2: [^123I]I-(HE)3-E01-PIB (designed binder)
chain: MRGSHEHEHEGSDLGKKLLEAARAGQDDEVRILMANGADVNADDTWGWTPLHLAAYQGHLEIVEVLLKNGADVNAYDYIGWTPLHLAADGHLEIVEVLLKNGADVNASDYIGDTPLHLAAHNGHLEIVEVLLKHGADVNAQDKFGKTAFDISIDNGNEDLAEILQKLN
modifications: [^123I]I-para-iodobenzoate (PIB) conjugated to the N-terminal or one of eight lysine amino groups (site-unspecific)
notes: DARPin E01 with the N-terminal (HE)3 tag; source: E. coli, purified; not shown: (HE)3, N-terminal, kept
B2 showed a Kd of 2.5 ± 0.5 nM.
